The supplement of paper PMC9732359
± gives the uncertainty stated by the source.

Assay: protein stability index of a GFP-peptide fusion (yeast GPS) (PSI 1-4); higher = more stable; sorted into four equal gates, so the index is relative within each strain
Details: pdr5∆
How it was run: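 Plasmids in a pooled yeast library fused tiled 17-residue yeast protein peptides downstream of GFP and also expressed Cherry. Mid-log cultures grown without leucine were sorted into four equal gates by GFP/Cherry fluorescence ratio. Each gate's plasmids were PCR-amplified and Illumina-sequenced, and reads were matched to strains by barcodes. The protein stability index is derived by multiplying each gate's read frequency by its gate number and summing the results.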

Sequence	protein stability index
ERVSPTDIEEGMRVGVD [RPT1]	3.4 ± 0.14
ESAPITAEDSWAVISAF [RPB2]	2.99 ± 0.062
ESDLYKLKECPFDMGGY [RPB2]	3.25 ± 0.087
ESDSKLQCHISGTTNFM [UBP6]	2.69 ± 0.26
ESGEFDFDLFKEVLPDL [YJL039C/NUP192]	3.26 ± 0.092
ESIDVDMDAESNESQNG [SMC3]	2.91 ± 0.079
ESKGNAFKHKRALVEHI [RPL19A]	3.38 ± 0.1
ESKQDGLSILFLTGQFA [YML103C/NUP188]	2.57 ± 0.062
ESLTFNEFQLQWGKYQT [SWI1]	2.93 ± 0.047
ESNKRYRFFKKISEDPV [SNF12]	2.97 ± 0.16
ESPLSVAIQQGDIKPEF [YML103C/NUP188]	1.44 ± 0.08
ESQEKYMEPFDLDLNEQ [NSL1]	3.21 ± 0.057
ESQYPIVTEQPSAEIRE [SWP82]	2.73 ± 0.042
ESSKLMTVTKVSLPEGS [BRR2]	2.33 ± 0.11
ESVPTPANAEPQAVTIT [ITC1]	2.92 ± 0.075
ETAKMIENMTKEKVSNG [FAS2]	3.28 ± 0.13
ETEEIDPELLRSYIFGG [RPL5]	3.44 ± 0.082
ETELPTLSLPDSQDYIL [SMC1]	3.19 ± 0.054
ETHETNISNAKLANFFS [YAR002W/NUP60]	3.15 ± 0.11
ETHSKKRKKEANEEPNT [ITC1]	2.6 ± 0.072
ETKSWINESAENFSNGI [MED1]	2.72 ± 0.047
ETNGYDPFSIYGFSNKE [SNF5]	1.51 ± 0.075
ETPEGQACGLVKNLSLM [RPB2]	2.25 ± 0.12
ETQEIKENDTVMNTKLL [ESC2]	3 ± 0.063
ETRPAQVILPMSPNHGT [FAS2]	2.38 ± 0.04

Sequence	protein stability index
ETTIDDLPISSTDNEAI [SMC1]	2.7 ± 0.087
EVAVPDRVAKVLTYPEK [RPO31]	3.06 ± 0.1
EVEPALLLLQDYVTNPD [RPN1]	1.55 ± 0.11
EVTDKNYYYLFDKKSFF [PRP8]	2.44 ± 0.043
EVTEGQAEATEWAEENA [RPS0B]	3.22 ± 0.22
EVTIEDALKVVLRTALV [RPS12]	3.31 ± 0.091
EVTKEEDIIANYASVYP [RRP43]	2.95 ± 0.057
EVTKGEKTYTKAPKIQR [RPS6A]	3.19 ± 0.14
EVTKSSHVENLEEKLYQ [YIL149C/MLP2]	2.97 ± 0.072
EVYGINEESTNERLEIN [SIR4]	3.25 ± 0.13
EWKSEFVVPTFGQDVSP [SNM1]	2.29 ± 0.055
EYQIVYYNPQAGTKITI [RGR1]	2.1 ± 0.22
FAGVASMNVTLGVPRIK [RPO31]	2.78 ± 0.086
FAISMGYLFKVSALDKC [ECM29]	1.67 ± 0.21
FANYKLLLKKIIKDYVL [SRB4]	2.24 ± 0.068
FDDILKVGAEMMMQQQL [MED2]	2.44 ± 0.093
FDDLLKPVYKGKKLTDE [RET1]	2.85 ± 0.27
FDISMADLSSSEEEEDE [SSN2]	3.13 ± 0.077
FDKVIYHLHPTFANPNR [TAF14]	1.44 ± 0.064
FDNVASVFMPLIFIACN [ECM29]	2.72 ± 0.038
FDPVYTTVITVFLEFSL [YML103C/NUP188]	1.69 ± 0.043
FDSVIVENLTVAQECIA [SMC1]	1.62 ± 0.11
FDVNNIDMHLIYGVEWL [YDL116W/NUP84]	2.09 ± 0.049
FEAQIDSVEFIFQAKRN [RPN10]	2.67 ± 0.082
FEETKLSTTPTKSNRRV [SIR4]	2.83 ± 0.12

Sequence	protein stability index
FENCYLEGNDIHALAAK [FAS1]	3.06 ± 0.049
FEQKGSQTTTNDSKEES [YLR335W/NUP2]	3.13 ± 0.077
FEYLATVMYQRRSKMNP [PRE4]	2.72 ± 0.21
FEYSKYRPLTPSSEVYS [RRP6]	3.01 ± 0.071
FFTNPNKKRPSSKKVFS [YOR098C/NUP1]	3.1 ± 0.054
FGAKMSRTLILSILNEI [SIN4]	1.42 ± 0.044
FGAKSDENKAGATSKPA [YJL041W/NSP1]	3.23 ± 0.1
FGHLKLALPVFHIGYFK [RPO31]	1.22 ± 0.062
FGINTNTTKTADTKAPT [YLR335W/NUP2]	3.41 ± 0.073
FGKTVKDGPFYTGSMSL [RPC31]	3.17 ± 0.11
FGQRAVLKFAAHTGATP [RPS0A]	2.56 ± 0.07
FIANEGVHTGQFIYAGK [RPL2A]	2.44 ± 0.17
FIENFLTNDTFEKKLSI [YML103C/NUP188]	3.12 ± 0.12
FIKEIHKSIELISNLLF [YCS4]	2.16 ± 0.051
FIMVKGCIPGNRKRIVT [RPL3]	1.48 ± 0.08
FISNLPNVSDKYYLEES [NUT1]	1.49 ± 0.094
FISSNDAFNMLSLTTVP [SNF6]	2.44 ± 0.063
FIYDTEKNGGLGWDLDA [FAS2]	2.96 ± 0.12
FKATHILDFGPGGASGL [FAS1]	3.43 ± 0.14
FKLDKDTSNWELSDSWR [YGL100W/SEH1]	3.45 ± 0.055
FKRVSQTFEAKLHFKDT [NUT1]	3.32 ± 0.1
FKVQIIELLSYLVEAPW [YML103C/NUP188]	2.03 ± 0.12
FLFAPELGAINLHALSM [SWI1]	2.05 ± 0.08
FLKLVLSESPVDFEKFE [SIN4]	2.69 ± 0.069
FLKVKGLVKQHLDSFNY [RET1]	3.18 ± 0.1

Sequence	protein stability index
FLNDVIPTTKNLRLLVE [DLS1]	3.16 ± 0.11
FLRPTYPDLCSIYDKWT [RPN1]	2.82 ± 0.059
FLSPYISTHLKTICNLL [IRR1]	1.76 ± 0.065
FLSSFDDVLQTIITDCA [YJL039C/NUP192]	2.07 ± 0.049
FMDETAVALAASDLVLI [SNU114]	2.74 ± 0.076
FMLSDDEGMESIEMEEE [RRI2]	3.78 ± 0.29
FNITDNGVRALFHSCTR [GRR1]	2.52 ± 0.088
FNQFVDYTLQDIICEDS [RPB2]	2.86 ± 0.083
FNTLVRIMSTRCMMAAQ [DIS3]	1.73 ± 0.058
FNVDDVLKFTFTGEKPI [MED8]	3.02 ± 0.097
FNYVAVGDVSNLPYLDE [QCR2]	3.14 ± 0.11
FPKTTVAALRFTAGARA [RPL18A]	1.47 ± 0.085
FPQYKLTTFANQVMMDR [ARP7]	2.19 ± 0.071
FQHILRLLNTNVDGNIK [RPS18A]	2.95 ± 0.064
FQITLSSDDLQNCWSLI [SSN8]	2.33 ± 0.063
FQLPTTCVSMAPIQLKI [RGR1]	1.76 ± 0.055
FQNTNTRSALKLVRESE [QCR2]	2.94 ± 0.074
FRNNKNDNYSSDMENDN [REC8]	3.15 ± 0.23
FRSLFFRSYMDQEKKYG [RPB2]	2.14 ± 0.07
FRVQSQSNYGIYSSDAQ [NUT1]	2.51 ± 0.059
FSFGAATPSAKEASQED [YLR335W/NUP2]	3.25 ± 0.074
FSFGAKANEKKESDESK [YJL041W/NSP1]	3.38 ± 0.089
FSFSKSEEERKSSPISN [YOR098C/NUP1]	2.23 ± 0.071
FSLLVKAEIPPEYAKVG [SIN4]	2.45 ± 0.045
